Results on 2 molecules are retold here after patent publication US20100137420A1 (Johns Hopkins, published 2010).

The target in this experiment is T1, protein A beads (UniProt P38507 37-477).
T1 construct: Used alone as a control in the immunodepletion; also called protein A beads alone
The experiment in a line: CSF incubated with protein A beads alone, SELDI-TOF read-out. On the procedure:
20 μl of rabbit anti-human cystatin C or rabbit anti-fusin antisera (DakoCytomation, Carpinteria, Calif.) was bound to 10 μl of protein A beads equilibrated in PBS, pH 7.4, by rocking at room temperature for 1 hr. 10 μl of equilibrated protein A beads alone were used as another control. Each sample was washed three times with PBS pH=7.4. […] 30 μl of this CSF was added to each of the above sample and rocked for 1 hr at room temperature. 15 μl of the supernatant was applied to CM-10 arrays and analyzed as described above.

B1: C-terminal cleavage product of cystatin C lacking the last 8 amino acids (12.5 kD peak) in human cerebrospinal fluid (other)
chain: SSPGKPPRLVGGPMDASVEEEGVRRALDFAVGEYNKASNDMYHSRALQVVRARKQIVAGVNYFLDVELGRTTCTKTQPNLDNCPFHDQPHLKRKAFCSFQIYAVPWQGTMTL
notes: Endogenous fragment in CSF of MS/CIS patients; also called biomarker A
In the case of B1, the binding result was “no binding”.

B2: full-length cystatin C (13.4 kD peak) in human cerebrospinal fluid (other)
chain: SSPGKPPRLVGGPMDASVEEEGVRRALDFAVGEYNKASNDMYHSRALQVVRARKQIVAGVNYFLDVELGRTTCTKTQPNLDNCPFHDQPHLKRKAFCSFQIYAVPWQGTMTLSKSTCQDA
notes: also called biomarker J
As to B2, the binding result is “no binding”.
